Experimental data: publication PMC3586275 (Biochemistry, 2009)

Target: the molecule itself
Assay: SEC

B1: streptococcal coaggregation regulator (ScaR) (natural protein, Streptococcus gordonii, UniProt Q9RFN3 1-215, looked up)
chain: MTPNKEDYLKCLYELGTRHNKITNKEIAQLMQVSPPAVTEMMKKLLAEELLIKDKKAGYLLTDLGLKLVSDLYRKHRLIEVFLVHHLGYTTEEIHEEAEVLEHTVSDHFVERLDQLLDYPKACPHGGTIPAKGELLVEKHKLTLEEAKEKGDYILARVHDNFDLLTYLERNGLQVGKTIRFLGYDDFSHLYSLEVDGQEIQLAQPIAQQIYVEKI
- stoichiometry N: 2
